One block for each substance: values may come before it.
Experiments:
[1] = target: E. coli MukB(G67C, E1407Q)-HaloTag (E. coli) (UniProt P22523); assay: cross-linking; in vivo BMOE cysteine cross-linking of E. coli cells in exponential phase, 10 min on ice in PBS; SDS-PAGE and in-gel fluorescence of MukB-HaloTag-TMR
[2] = target: E. coli MukB(G67C, R771C)-HaloTag with natural C730 (E. coli) (UniProt P22523); assay: cross-linking; in vivo BMOE combinatorial cysteine cross-linking, cells grown to stationary phase; SDS-PAGE and in-gel fluorescence of MukB-HaloTag-TMR
[3] = target: E. coli MukB(R771C)-HaloTag with natural C730 (E. coli) (UniProt P22523); assay: as above
[4] = target: E. coli MukB(G67C, D1406A)-HaloTag (E. coli) (UniProt P22523); assay: cross-linking; in vivo BMOE cysteine cross-linking of E. coli cells in exponential phase, 10 min on ice in PBS; SDS-PAGE and in-gel fluorescence of MukB-HaloTag-TMR
[5] = target: E. coli MukB(G67C)-HaloTag (E. coli) (UniProt P22523); assay: cross-linking; in vivo BMOE combinatorial cysteine cross-linking, cells grown to stationary phase; SDS-PAGE and in-gel fluorescence of MukB-HaloTag-TMR
[6] = target: E. coli MukB(G67C)-HaloTag (E. coli) (UniProt P22523); assay: cross-linking; in vivo BMOE cysteine cross-linking of E. coli cells in exponential phase, 10 min on ice in PBS; SDS-PAGE and in-gel fluorescence of MukB-HaloTag-TMR

Substance: E. coli MukB(G67C, E1407Q)-HaloTag (from UniProt P22523 1-1486) (natural protein)
cross-linked fraction [1]: 30%

Substance: E. coli MukB(G67C, R771C)-HaloTag with natural C730 (from UniProt P22523 1-1486) (natural protein)
MukB species cross-linked at the heads [2]: 12%

Substance: E. coli MukB(R771C)-HaloTag with natural C730 (from UniProt P22523 1-1486) (natural protein)
cross-linking efficiency [3]: 62%

Continued, values first:

cross-linked fraction [4]: 21%
Substance: E. coli MukB(G67C, D1406A)-HaloTag (from UniProt P22523 1-1486) (natural protein)

MukB species cross-linked at the heads [5]: 29% | cross-linked fraction [6]: 22%
Substance: E. coli MukB(G67C)-HaloTag (from UniProt P22523 1-1486) (natural protein)

Source: paper PMC8669397
